Laboratory results taken from patent US7135319 (Pfizer, dated 2006).

Biological target: T1, B. subtilis Acyl Carrier Protein Synthase (ACPS), holo-[acyl carrier protein] synthase (B. subtilis, UniProt P96618 3-121, limits assumed)
T1 construct: A trimer of ACPS was the molecular replacement probe; three ACPS molecules per asymmetric unit; also called A1; B1
T1 sequence: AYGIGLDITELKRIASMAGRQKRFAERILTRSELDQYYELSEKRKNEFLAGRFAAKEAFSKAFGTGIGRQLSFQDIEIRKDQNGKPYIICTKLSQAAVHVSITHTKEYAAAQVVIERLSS
Experiment: gel filtration of the mixed proteins, complex purified and crystallized
Procedure: Crystallization of ACPS with ACP Purified ACP and ACPS were mixed at a 1:1.1 molar ratio and the mixture was loaded onto a gel filtration column. The resulting purified complex was dialyzed against a solution containing 50 mM Bis-Tris pH 6.4, 100 mM NaCl, 10 mM MgCl_2, and 10 mM DTT before concentrating the complex to ~10 mg/mL. Crystallization conditions for the ACP/ACPS complex were also determined using the sparse matrix screens available from both Hampton Research and Emerald Biostructures. Screens were set up with 2 μL drops at both 18° C. and 4° C. Optimization of a crystalline hit (0.2M Potassium Formate, 20% PEG 3350) gave diffraction quality rod shaped crystals. Crystals could be obtained between 0.15M and 0.3M Potassium Formate and between 15 and 23% PEG 3350. The rate of growth seriously affected the quality of crystals with the optimal crystals being formed between 8 and 12 days after setup. The crystals were grown with a 1:2 drop ratio of protein to well solution at 18° C. These crystals belonged to space group C222_1 with unit cell parameters a=78.46, b=122.03, c=136.77 Å and contained three molecules of ACPS and three molecules of ACP in the asymmetric unit.

B1: B. subtilis Acyl Carrier Protein (ACP), holo form (other)
chain: GPLGSADTLERVTKIIVDRLGVDEADVKLEASFKEDLGADSLDVVELVMELEDEFDMEISDEDAEKIATVGDAVNYIQNQQ
modifications: phosphopantetheinyl group attached to the O-gamma of Ser-36
notes: also called holo-ACP; AP1
B1: binds.
